Experimental findings from patent publication US20260117244A1, “INHIBITORY RNA FOR THE CONTROL OF PHYTOPATHOGENS” (priority 2021, published 2026) are described below.

This series deals with G. orontii MGH1. The experiment in a line: Spray-induced gene silencing (SIGS), G. orontii spore production on A. thaliana (whole plant and detached leaf assays). It counts as in vivo, Golovinomyces orontii. The settings on record: topical dsRNA against G. orontii target (Gor Seq ID), n>=3.

B1: 146 (nucleic acid, listed as Golovinomyces orontii)
chain: ATGGCTCAATCCCCGGACAGTAAGGTAGAGAAAGTCTTTACGACAAATCACCTCGGAATTGGCAGGCTCCAAGGAAAGAACGCAATTGTGACCGGAGCAGCAGGTGGTATCGGCTTGGAAACATGCATTTTATTCGCCAGAGAAGGTGCCAATGTTCTTTTGGCCGACATTTCAGCTCCAGCCCTAGAAAAAGCATATGCCAAGATTGCTCAACTTGTACCTTCGGCTCGCAAGGTCGAGAAAATGCTATGTGATGTTTCCAAGGAGGGAGACGTCAAAGCTATGGTTGACCATGTTGATTCATGGGGTGGTGTTGACATTATTTTTAACAATGCGGGCATAATGCATGCTGATGATGCTGATGCAGTTGACACCCCTGAGAAGATTTGGGATCTCACTCAGGCTATCAACGTGAAAGGTGTCTGGTTCGGCTGCAAACATGCAGTCATCTCATTTCGAAAGCATAAAAAGTCAAAGGGCTGTGTCATCAATACAGCCTCTGTTGTTGCTTTGGTGGGATCTGCAACTCCACAACTTGCCTACACCGCGAGTAAAGGAGCTGTTCTAGCTCTAACGCGGGAGCTTGCAATTGTACATGCACGCGAGGCGCCGTTGAACACTCCCTTACTTCAGGATTGGCTTGGAGATGACCAGCCTAAGCGACTTCGTCGGGAAATTCATTTTCCATGTGGCCGCTTCGGCGAAGCTGTTGAACAAGCTCGTGCTGTTCTTTTCTTAGCTTCCGATGACGCCAATTTCATTAATGGGCAGGAATTTGTTGTCGATGGCGGAATGACTAAAGCATATGTGACTCCAGAAGGTCCCCCGACCGAGGCGCCTATAAATAACTCATTACTCTCTGAGCCAATCGATAATTTTAAGACCACTAACTCATCAGACATGGGAGTTTGA
modifications: listed as DNA
For the molecule B1, the “G. orontii Spore Production on Arabidopsis, Detached Leaf Assay, % reduction” value is recorded as 63% and the “G. orontii Spore Production on Arabidopsis, Whole Plant Assay, % reduction” value was 42%.

B2: 123 (nucleic acid, listed as Golovinomyces orontii)
chain: ATGTTGTGCTTCATTTCCATCTTCACAACAGCTCTCCTAATCTCTCCCTCCCTAGGAGTTAATTCAGCTCAGAACGGCGAAACTCCCGATGACGATTCATTAGGTTCTACGAAACACATGAACTTTGGCTCTGGTCTCTCTGAATTCAATGCTCATGAAGATATGTATGTTCCTGCCATGGATCTGAATGGGTTTAGAATAAAGCGACGACATTTTCAAAATGAAGGCTATTACTGCAGCAAATCGCGCAATCACCTCGAATTTACAAATCAATCTTTCGTGAAGAATGAAGCTAAGAAGGCATGCAAGGGTCTTGAAAGGTCAAAACACGAACACAAACACGAACATGAACATGAGCACGAAGATAAACATGAATATAAAGAATATGAAGAAGAAGAAGAAGAAGAAGAAGAAGAAGAAGAAGAAGAAAATAAAATAAAAAAAGGAAAGAAAGGAAAGAAACATTCCGATTACCCTCATCCATACAATGCAGTCAAATATGTAAAATATTCCCCACCATACTTCGAACACCGAATCCATGATGTGAAGAAAAATAAATCAGGTCTGAGCGTCATCATAGATATCGACTGTCATATTGTTGATGTTGTTGCTCTCAACCAAGATAAACGATACCATCAATGTGCCCGTGCATGA
modifications: listed as DNA
With B2, the “G. orontii Spore Production on Arabidopsis, Detached Leaf Assay, % reduction” value is reported as 38% and the “G. orontii Spore Production on Arabidopsis, Whole Plant Assay, % reduction” value worked out at 32%.

B3: 124 (nucleic acid, listed as Golovinomyces orontii)
chain: ATGTTCCTCAGAGCTTCGTTGACCTTCTGGGCTCTCTTGGCCACAGAGATAAGTCTGTCCACGACAGCCTCCGTTAGACGACTGGAGAATCGCGAGGTTGTTGACGATATTAATGACAATGGAATCATGATTGAGTGGGCAAGATGCAAAGGTAGACACTACGATAAAGATGAAATATATGAAACGCTCAAACAAGCTTGTGAGACGAAAAATTCATCTACCATTTTTGAAAAAGCCGTCAATCTTCGTCCACATATCCCATCGTCATCAGAGAAGTATCATCATGAGATCAACCCTCCCTACTACGCGTACTCTCTGCATGATACCGTATTCAAAGATAAACTACATCCAATCGATGTTATCGTGATGAACGATGAATGTAAGCTGGCTGGTGTACTCATGGAGACCACCAAGATCAGCTGCAACGACGACACGTGCGGCTCCGAACCCCGGTACAAAGATTGTGAGATCCGATTAACGAAAACCGCTCCGACGTCGACAGAGACGACTCAGGTTGCGGAATTGTCTTGA
modifications: listed as DNA
Take B3: the “G. orontii Spore Production on Arabidopsis, Whole Plant Assay, % reduction” value was 33%.

B4: 122 (nucleic acid, listed as Golovinomyces orontii)
chain: ATGAAAGCCAAACACCTAATTCTGACCATAGCGCTTGCGGCTACTGCGAGGGCAGAAGATCAATATGATGCTTCTGAACTACCACAGTTGAAACATCAGCAGTTAAGAATACCTTTTCCGACAGCTATTGCTGAATCGAAGTGCAGCTGTGCCACTGAATATATAACATCTACAGGCGAGGGTTTTCTTTATACTGCTGATGTATCATCAATTACCAAAAATTTTGATCCGCAACCGACTCACGAGTATCCTCTAATCGTTGAACCATCCATATCCGTTAATTGTCCGCCCCCGTCCACCATTACTGTAACCGAGACAAAATATATTACTTTGATGCCTGATCTAGCACCATCTGATCCTGCTAGTCCGATCTTAGAACCGCAAAATACCGATGCCGGACCAAACTCTCCATTAAATCCCTCTAGCCCGATATTAGATCACCCAAATACTGATACTGGGCCGCCTTCTCCACCTGCTCCAGTCGTTTCTAACATTGAGATATCTCCGTCAGCCCCAGACCCCAGCCCTGAAGTATCTTCAAAACCACATACTGGCACACTGGGATCTAACAATGGTCTGTGGGCAATCACTTTTTCTCCATTTAATGATGATGGAACGTGCAAAGGTGAGACTGCTGTTTGGGAAGATGTGCGCTTGATTCGTAGCGCTGGCTTCAAGGCAATTCGTGTCTATGGTACTGAATGTTCGGGAATTGAACACGTCAGTTCTGCCGCCAGTTTTCACGGACTAAAACTTATTATCGGTATATTTATCAGCGAATCTGGTTGTTCTGGTGCTGCGGAGCAAGTAACTCATATCACAAAATGGGCCAAATGGGAAATTGTCGAGCTAATTGTGATTGGAAACGAAGCCCTATTTAATGGCCATACTTCTCCAGATGAGCTCGCAAGATTTATTAGCTCAACCAGAAATACACTACGATCCTCTGGTTACAATGGACCTTGCACAACAGCTGAGCCTCTCAATATCTGGCAGCAAAGCTCGGATGTATTGTGTGGTGCAGTTGATATCGTTGGATGTAACATTCATCCATTTTTCAATCCAGAAGTTGACGCTAGTCATGCCGGACCTTTCGTCAAGAGTCAGCTCGAAATTGTTAATAACATTTGTCCAAGCAAATATGGTATCAACCTCGAATGTGGATGGCCTTCGGCTGGCGAGTGCAACGGCAAGGCTTGTCCTGGTGAGTCGGAGCAAAAAATTGCTGTGGAAAGCATTCAGTCATTTGCTGGCAACGTGTCGGTAATGTTTACATACACCAACGATAAATGGAAAGACCCAGGCCCCCTCAAGATTGAGCAGAGTTTCGGATTAATTAAGCTCCTGAATAGCCACTAG
modifications: listed as DNA
B4: the “G. orontii Spore Production on Arabidopsis, Whole Plant Assay, % reduction” value amounted to 33%.

B5: 167 (nucleic acid, listed as Golovinomyces orontii)
chain: ATGCTTCTAACTAAGATTCACACCGCACCAGAACTAGACTCATTTACAGCACTCGAAGATCATCAATCAAAGACTCCCGACAAATTTTATGAAACGAAACCTGTCCTATACTTTCATGACAATAATGCCAGAGCTCTTATCGTCAAAAGTCAGCTTGTCAAATTACCCATCTGTGAATTAAATTCTTCGGAAAATGAACCTGAATCAAGCCCAAAAATAGCTAATGTCGAAGTGTTTGTCAATTCCCAGAAATTGATTATATTTAACCCTGTCGAATGCATTGGCTACGCTATTCCCTACTCAGCGATTACTCTTCATGCTATCCAGAGATTAAAAGATCCAATAGATTCATATCTGGAAATACAAGGACTCTACATGCAAATAAATATATCAGATTGCAGTGGTGACGAACAACAAGATGAAGATTCGACCTATGTAGATCTAACTCTCATACCATCACTCAACTCTGATACCATAACTAAACCAAGAATCCAAACACTCTACGAGGCGGTCTCTGCCTGTTCCGACTTAAATCCTGACTTGAATCCGGAAGACGATGGGATAACTGAAGATGTAGGTGAAGAATCTAGGATAATATTTGAAGGCACTGATGGTCTTCCTGGTGTTTTCAACGGCGGATCAGATGGCAACCTCCCACCGCCGTTTCCTGGTAGTGGGGGATGGATAACAGCTGAGAATATGTCTCAATTTTTAGACGAAGAAGGTAATTGGATTGGGAAAAGCGATAACGGTGAGGATTCAATGGTTATCGGATAA
modifications: listed as DNA
Turning to B5, the “G. orontii Spore Production on Arabidopsis, Detached Leaf Assay, % reduction” value is 39%.

B6: 179 (nucleic acid, listed as Golovinomyces orontii)
chain: ATGCAGATCTCACGCATCACATTTATCTCTTTCTTCATCGCCCTTGTCGCGGCTCATCCAACTCTTAATGAACGACAAACAATTACCATCCCAAAAATTCCTGAAGTTCCAGCCGTCCCCGAAGTTCCCGCTGTTCCTGAAGTACAAAAGCGTCAACAGACGATAACTGTTCCCACGATCCCCACGATTCCTACCGTGCCAGATGTTCCTGCTGACACACGAATAAAGCTGTCCACAAACTCAATGGCTACGCCAAACTCTATGCTGGACAAGAGACCTGAAGTGTGGCATATCCATGATAACCGGATAACTGGTCGGAAAATATTCAAAGCTAAATGA
modifications: listed as DNA
Consider B6, for which the “G. orontii Spore Production on Arabidopsis, Whole Plant Assay, % reduction” value was determined as 41%.

B7: 169 (nucleic acid, listed as Golovinomyces orontii)
chain: ATGGATATGGATATGAATATGAGCACAGGAATGAATGCAAGTCCAATAATCGGAGGCAACGAAGTCCATTCACATCCAATGGATATGGGAAGGGATATGTCGATGACTTTTTTTAATGGCATGACAACTAAACTCTATACCTCGACGTGGGCACCAAAAAGTTTAGGCACTTATATAGCGACTTGTTTATTTCTCATCGCTTTATCCAGCATATCTAGGTTTCTATTAGCCGCCAAGTTATGGCTAGAAACAACTTGGATGAACGCTGAGCTCAATCGAAAATATGTTACGGCTGCTGGAAAAGTACCAATCTCAGAACAGATTTCAATGAAGTCTGAAGCTCGGCAAATGGTACTATCTGGAAATGGTTTTGAAGAAGATGTGATAGTCGTTCAAAAGAAAGGATTCCGTGTACGGCCCTGGAGTATTACTGTGGATCCAATCCGAGCGCTGATAGACACCACAATTATGGCAGTGGGATTATTAATAATGCTGGCCGTTATGACAATGAATATTGGGTATTTTATATCGGTTTTGATAGGCACATTTATTGGCAGCCTAGTTGTCGGGCGTTATTCTCCTGAATAA
modifications: listed as DNA
On to B7, for which the “G. orontii Spore Production on Arabidopsis, Detached Leaf Assay, % reduction” value amounted to 54%.

B8: 140 (nucleic acid, listed as Golovinomyces orontii)
chain: ATGCAATTCACTCAACTTCTCATCTTAGCCTTCGTCGCTTGCGTGGCTGCTACACCATCAGGATTGAACTTTTACGCGCGAAGAACTGACGGTGGAGACGACGAATCACCACAGACATGTACTCAGGCCCTACAAGCTATTCCCAAGTGCGCTCTGAGTTGCATCACACAACCCCCAATCGACGCCGGTTGCAAATCAGCTGCTGACTTCGCTTGCACCTGTGAGAAAAAGACCCAAAAACAAATTACAAAGGCAGAAACTCCTTGTGTTCTCAAGGCTTGCGGACTAAAAGAGGCACTTGCTGCTTCTAAGGCTGGAAAAGCTGTATGTGAGGCTTGCAACACATCCCCAAGCGACCCATCCGACGGTCACGGTGACGACGGAGATGACGATTCATACGATAGCTCTGATTCTGAATAA
modifications: listed as DNA
Consider B8, for which the “G. orontii Spore Production on Arabidopsis, Detached Leaf Assay, % reduction” value was 37% and the “G. orontii Spore Production on Arabidopsis, Whole Plant Assay, % reduction” value came to 60%.
